Results reported in US20140170677A1.

What was measured:
[1] = target: human CXCR4 (Chemokine receptor 4) (human) (UniProt P61073); assay: FACS on MDA-MB-231 cells (endogenous CXCR4), antibody at 10 ug/ml
[2] = target: human CXCR4 (Chemokine receptor 4) (human) (UniProt P61073); assay: FACS on U937 cells (endogenous CXCR4), antibody at 10 ug/ml
[3] = target: human CXCR4 (Chemokine receptor 4) (human) (UniProt P61073); assay: FACS on Hela cells (endogenous CXCR4), antibody at 10 ug/ml

Chain of UniProt P61073 (P61073 whole entry): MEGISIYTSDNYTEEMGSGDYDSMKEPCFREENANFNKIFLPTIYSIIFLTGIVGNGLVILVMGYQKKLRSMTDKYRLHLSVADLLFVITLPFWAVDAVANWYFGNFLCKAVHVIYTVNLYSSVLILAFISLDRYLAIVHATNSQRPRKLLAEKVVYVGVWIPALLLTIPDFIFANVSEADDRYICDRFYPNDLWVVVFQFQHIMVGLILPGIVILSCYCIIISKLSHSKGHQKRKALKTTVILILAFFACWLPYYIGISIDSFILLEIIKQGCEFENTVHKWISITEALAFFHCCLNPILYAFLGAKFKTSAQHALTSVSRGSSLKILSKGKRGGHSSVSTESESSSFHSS

B1: anti-CXCR4 I-3859 monoclonal antibody (Mab) (antibody, V domains shown)
VH: QVQLKESGPGLVAPSQSLSITCTVSGFSLTDYGVYWVRQPPGKGLEWLGMIWGDGTTDYNSALKSRLSISKDNSKSQVFLKMNTLQTDDTARYYCARGRQFGFDYWGQGTTLTVSS
VL: DIVMSQSPSSLAVSAGEKVTMRCKSSQSLFNSRTRKNYLAWYQQKPGQSPKLLIFWASIRESGVPDRFTGSGSGTDFTLTISSVQAEDLAVYYCKQSYNLRTFGGGTKLEIK
- MFI [1]: 59 MFI
- MFI [2]: 246 MFI
- MFI [3]: 633 MFI
